Test results from PMC3458034, “Structure and Flexibility of the C-Ring in the Electromotor of Rotary FoF1-ATPase of Pea Chloroplasts” (PLoS ONE, 2012).

Molecular target: the molecule itself
Assay: crystal structure; c-ring from a native preparation in detergent; crystals grown in 100 mM Na-acetate pH 4.5, 50 mM MgCl2, 50 mM NaCl, 10 mM yttrium chloride, 14-24% PEG 550 MME; 3.4 Å

B1: chloroplast ATP synthase subunit-c of the green pea (Pisum sativum), as the c-ring (natural protein, UniProt P08212 1-81, looked up)
chain: MNPLIAAASVIAAGLAVGLASIGPGVGQGTAAGQAVEGIARQPEAEDKIRGTLLLSLAFMEALTIYGLVVALALLFANPFV
notes: ATP synthase (CFoCF1) subunit c of the chloroplast, Pisum sativum; each monomer is printed as an 81-residue hairpin-shaped polypeptide (TM1 residues 4-41, loop 42-45, TM2 46-75); Native preparation, no tags; Homo-tetradecameric ring in the crystal; also called c-subunit; c14; source: purified from thylakoid membranes of P. sativum var; Alaska young leaves (DDM, PEG precipitation, sucrose …)
stoichiometry N: 14
